Assay results published in patent US20200079833A1 (AstraZeneca / MedImmune, published 2020).
Starred links: 1 amine or outer side, 2 acyl side, 3 side chain; linkers in the order of their positions; H or OH if unused. Non-standard residues stand in square brackets, D forms with d. Groups on a side chain read outwards from the residue. Primed or numbered codes have the meaning given here. No end group written: not given here. *: point of attachment. γGlu = O=C(O)[C@H](CCC(=O)[*:2])N[*:1]; Stearoyl = CCCCCCCCCCCCCCCCCC(=O)*; Palmitoyl = CCCCCCCCCCCCCCCC(=O)*; αMeF = C[C@](N)(Cc1ccccc1)C(=O)O; αMeK = C[C@](N)(CCCCN)C(=O)O; αMeS = C[C@](N)(CO)C(=O)O; PEG2′ = not defined here; Aib = CC(C)(N)C(=O)O

T1: glucose-dependent insulinotropic peptide (gastric inhibitory polypeptide) receptor (human, UniProt P48546 22-466)
T1 sequence (looked up): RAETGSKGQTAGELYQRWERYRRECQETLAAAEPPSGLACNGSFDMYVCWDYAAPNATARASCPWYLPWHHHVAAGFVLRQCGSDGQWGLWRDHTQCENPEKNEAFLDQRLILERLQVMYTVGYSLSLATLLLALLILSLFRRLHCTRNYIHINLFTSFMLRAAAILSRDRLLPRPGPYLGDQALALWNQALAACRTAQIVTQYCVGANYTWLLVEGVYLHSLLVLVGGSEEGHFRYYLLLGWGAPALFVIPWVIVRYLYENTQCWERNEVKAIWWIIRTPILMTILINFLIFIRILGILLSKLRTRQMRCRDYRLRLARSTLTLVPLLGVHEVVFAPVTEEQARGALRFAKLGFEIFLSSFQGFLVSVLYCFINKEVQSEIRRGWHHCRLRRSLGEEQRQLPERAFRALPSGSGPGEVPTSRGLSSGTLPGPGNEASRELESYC

B1: SEQ ID NO 43 (peptide)
peptide: H[Aib]EGS[αMeF]TSDV[αMeS]S[αMeF]LEGEAA[αMeK]E[αMeF]IA[αMeF]VVEGG-NH2
modifications: N-terminus assumed
SMILES: CC[C@H](C)[C@H](NC(=O)[C@](C)(Cc1ccccc1)NC(=O)[C@H](CCC(=O)O)NC(=O)[C@](C)(CCCCN)NC(=O)[C@H](C)NC(=O)[C@H](C)NC(=O)[C@H](CCC(=O)O)NC(=O)CNC(=O)[C@H](CCC(=O)O)NC(=O)[C@H](CC(C)C)NC(=O)[C@](C)(Cc1ccccc1)NC(=O)[C@H](CO)NC(=O)[C@](C)(CO)NC(=O)[C@@H](NC(=O)[C@H](CC(=O)O)NC(=O)[C@H](CO)NC(=O)[C@@H](NC(=O)[C@](C)(Cc1ccccc1)NC(=O)[C@H](CO)NC(=O)CNC(=O)[C@H](CCC(=O)O)NC(=O)C(C)(C)NC(=O)[C@@H](N)Cc1c[nH]cn1)[C@@H](C)O)C(C)C)C(=O)N[C@@H](C)C(=O)N[C@@](C)(Cc1ccccc1)C(=O)N[C@H](C(=O)N[C@H](C(=O)N[C@@H](CCC(=O)O)C(=O)NCC(=O)NCC(N)=O)C(C)C)C(C)C
B2: SEQ ID NO 41 (peptide)
peptide: H[Aib]EGS[αMeF]TSDVSS[αMeF]LEGEAAK([γGlu-Palmitoyl])E[αMeF]IA[αMeF]VVKGG-NH2
modifications: N-terminus assumed
SMILES: CCCCCCCCCCCCCCCC(=O)N[C@@H](CCC(=O)NCCCC[C@H](NC(=O)[C@H](C)NC(=O)[C@H](C)NC(=O)[C@H](CCC(=O)O)NC(=O)CNC(=O)[C@H](CCC(=O)O)NC(=O)[C@H](CC(C)C)NC(=O)[C@](C)(Cc1ccccc1)NC(=O)[C@H](CO)NC(=O)[C@H](CO)NC(=O)[C@@H](NC(=O)[C@H](CC(=O)O)NC(=O)[C@H](CO)NC(=O)[C@@H](NC(=O)[C@](C)(Cc1ccccc1)NC(=O)[C@H](CO)NC(=O)CNC(=O)[C@H](CCC(=O)O)NC(=O)C(C)(C)NC(=O)[C@@H](N)Cc1c[nH]cn1)[C@@H](C)O)C(C)C)C(=O)N[C@@H](CCC(=O)O)C(=O)N[C@@](C)(Cc1ccccc1)C(=O)N[C@H](C(=O)N[C@@H](C)C(=O)N[C@@](C)(Cc1ccccc1)C(=O)N[C@H](C(=O)N[C@H](C(=O)N[C@@H](CCCCN)C(=O)NCC(=O)NCC(N)=O)C(C)C)C(C)C)[C@@H](C)CC)C(=O)O
B3: SEQ ID NO 44 (peptide)
peptide: H[Aib]EGS[αMeF]TSDV[αMeS]S[αMeF]LEGEAAEE[αMeF]IA[αMeF]VVEGG-NH2
modifications: N-terminus assumed
SMILES: CC[C@H](C)[C@H](NC(=O)[C@](C)(Cc1ccccc1)NC(=O)[C@H](CCC(=O)O)NC(=O)[C@H](CCC(=O)O)NC(=O)[C@H](C)NC(=O)[C@H](C)NC(=O)[C@H](CCC(=O)O)NC(=O)CNC(=O)[C@H](CCC(=O)O)NC(=O)[C@H](CC(C)C)NC(=O)[C@](C)(Cc1ccccc1)NC(=O)[C@H](CO)NC(=O)[C@](C)(CO)NC(=O)[C@@H](NC(=O)[C@H](CC(=O)O)NC(=O)[C@H](CO)NC(=O)[C@@H](NC(=O)[C@](C)(Cc1ccccc1)NC(=O)[C@H](CO)NC(=O)CNC(=O)[C@H](CCC(=O)O)NC(=O)C(C)(C)NC(=O)[C@@H](N)Cc1c[nH]cn1)[C@@H](C)O)C(C)C)C(=O)N[C@@H](C)C(=O)N[C@@](C)(Cc1ccccc1)C(=O)N[C@H](C(=O)N[C@H](C(=O)N[C@@H](CCC(=O)O)C(=O)NCC(=O)NCC(N)=O)C(C)C)C(C)C
B4: SEQ ID NO 39 (peptide)
peptide: H[Aib]EGS[αMeF]TSDVSS[αMeF]LEGEAAKE[αMeF]IA[αMeF]VVKGGK([γGlu-Palmitoyl])-NH2
modifications: N-terminus assumed
SMILES: CCCCCCCCCCCCCCCC(=O)N[C@@H](CCC(=O)NCCCC[C@H](NC(=O)CNC(=O)CNC(=O)[C@H](CCCCN)NC(=O)[C@@H](NC(=O)[C@@H](NC(=O)[C@](C)(Cc1ccccc1)NC(=O)[C@H](C)NC(=O)[C@@H](NC(=O)[C@](C)(Cc1ccccc1)NC(=O)[C@H](CCC(=O)O)NC(=O)[C@H](CCCCN)NC(=O)[C@H](C)NC(=O)[C@H](C)NC(=O)[C@H](CCC(=O)O)NC(=O)CNC(=O)[C@H](CCC(=O)O)NC(=O)[C@H](CC(C)C)NC(=O)[C@](C)(Cc1ccccc1)NC(=O)[C@H](CO)NC(=O)[C@H](CO)NC(=O)[C@@H](NC(=O)[C@H](CC(=O)O)NC(=O)[C@H](CO)NC(=O)[C@@H](NC(=O)[C@](C)(Cc1ccccc1)NC(=O)[C@H](CO)NC(=O)CNC(=O)[C@H](CCC(=O)O)NC(=O)C(C)(C)NC(=O)[C@@H](N)Cc1c[nH]cn1)[C@@H](C)O)C(C)C)[C@@H](C)CC)C(C)C)C(C)C)C(N)=O)C(=O)O
B5: SEQ ID NO 42 (peptide)
peptide: H[Aib]EGS[αMeF]TSDV[αMeS]S[αMeF]LEGEAAEE[αMeF]IA[αMeF]VV[αMeK]GG-NH2
modifications: N-terminus assumed
SMILES: CC[C@H](C)[C@H](NC(=O)[C@](C)(Cc1ccccc1)NC(=O)[C@H](CCC(=O)O)NC(=O)[C@H](CCC(=O)O)NC(=O)[C@H](C)NC(=O)[C@H](C)NC(=O)[C@H](CCC(=O)O)NC(=O)CNC(=O)[C@H](CCC(=O)O)NC(=O)[C@H](CC(C)C)NC(=O)[C@](C)(Cc1ccccc1)NC(=O)[C@H](CO)NC(=O)[C@](C)(CO)NC(=O)[C@@H](NC(=O)[C@H](CC(=O)O)NC(=O)[C@H](CO)NC(=O)[C@@H](NC(=O)[C@](C)(Cc1ccccc1)NC(=O)[C@H](CO)NC(=O)CNC(=O)[C@H](CCC(=O)O)NC(=O)C(C)(C)NC(=O)[C@@H](N)Cc1c[nH]cn1)[C@@H](C)O)C(C)C)C(=O)N[C@@H](C)C(=O)N[C@@](C)(Cc1ccccc1)C(=O)N[C@H](C(=O)N[C@H](C(=O)N[C@@](C)(CCCCN)C(=O)NCC(=O)NCC(N)=O)C(C)C)C(C)C

These binders were tested against GLP-1 receptor (human, UniProt P43220 24-463) (assay: cell-based or functional assay).

Binder	Primary assay EC50 (cAMP), Mean pM GLP-1R	Primary assay EC50 (cAMP), n1	Primary assay EC50 (cAMP), n2
B1	0.6 pM	0.00045 nM	0.00071 nM
H[Aib]EGSFTSDV[αMeS]S[αMeF]LEGEAAK([PEG2′-PEG2′-γGlu-Stearoyl])E[αMeF]IA[αMeF]VV[αMeK]GG-NH2 [SEQ ID NO 45]	3560 pM	3.8 nM	3.3 nM
B2	147 pM	0.24 nM	0.051 nM
B3	6.7 pM	0.0065 nM	0.0069 nM
B4	33 pM	0.033 nM	0.033 nM
H[Aib]EGS[αMeF]TSDVSS[αMeF]LEGEAAK([PEG2′-PEG2′-γGlu-Stearoyl])E[αMeF]IA[αMeF]VVKGG-NH2 [SEQ ID NO 40]	1170 pM	1.8 nM	0.57 nM
B5	8.7 pM	0.0069 nM	0.011 nM

What follows are binders tested against glucagon receptor (human, UniProt P47871 26-477) (assay: cell-based or functional assay).
glucagon receptor, sequence (P47871 26-477): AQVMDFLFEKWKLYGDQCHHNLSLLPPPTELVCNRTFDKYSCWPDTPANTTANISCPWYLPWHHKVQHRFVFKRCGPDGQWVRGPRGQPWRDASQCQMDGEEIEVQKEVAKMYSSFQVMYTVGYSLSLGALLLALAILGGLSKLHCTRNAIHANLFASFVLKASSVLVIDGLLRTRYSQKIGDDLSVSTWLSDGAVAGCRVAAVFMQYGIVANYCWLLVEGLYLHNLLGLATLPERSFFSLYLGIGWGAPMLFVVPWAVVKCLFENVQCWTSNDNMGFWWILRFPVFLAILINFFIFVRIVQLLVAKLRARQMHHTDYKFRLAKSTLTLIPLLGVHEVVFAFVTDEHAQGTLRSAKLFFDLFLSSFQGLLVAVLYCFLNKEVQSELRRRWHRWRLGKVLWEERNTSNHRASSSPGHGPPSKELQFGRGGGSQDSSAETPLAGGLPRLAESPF

Binder	Primary assay EC50 (cAMP), n1	Primary assay EC50 (cAMP), n2
B1	31 nM	31 nM
H[Aib]EGSFTSDV[αMeS]S[αMeF]LEGEAAK([PEG2′-PEG2′-γGlu-Stearoyl])E[αMeF]IA[αMeF]VV[αMeK]GG-NH2 [SEQ ID NO 45]	26 nM	26 nM
B2	94 nM	28 nM
B3	31 nM	31 nM
B4	27 nM	27 nM
H[Aib]EGS[αMeF]TSDVSS[αMeF]LEGEAAK([PEG2′-PEG2′-γGlu-Stearoyl])E[αMeF]IA[αMeF]VVKGG-NH2 [SEQ ID NO 40]	85 nM	26 nM
B5	31 nM	31 nM

These binders were tested against T1, glucose-dependent insulinotropic … (assay: cell-based or functional assay).

Binder	Primary assay EC50 (cAMP), n1	Primary assay EC50 (cAMP), n2
B1	31 nM	31 nM
H[Aib]EGSFTSDV[αMeS]S[αMeF]LEGEAAK([PEG2′-PEG2′-γGlu-Stearoyl])E[αMeF]IA[αMeF]VV[αMeK]GG-NH2 [SEQ ID NO 45]	26 nM	26 nM
B2	94 nM	28 nM
B3	31 nM	31 nM
B4	27 nM	27 nM
H[Aib]EGS[αMeF]TSDVSS[αMeF]LEGEAAK([PEG2′-PEG2′-γGlu-Stearoyl])E[αMeF]IA[αMeF]VVKGG-NH2 [SEQ ID NO 40]	85 nM	26 nM
B5	31 nM	31 nM
